The values that follow come from PMC3800195 (Molecular microbiology, 2010).

The series deals with the molecule itself. Briefly: crystal structure.

B1: IsdI (enzyme, Staphylococcus aureus)
chain: MFMAENRLQLQKGSAEETIERFYNRQGIETIEGFQQMFVTKTLNTEDTDEVKILTIWESEDSFNNWLNSDVFKEAHKNVRLKSDDDGQQSPILSNKVFKYDIGYHYQK
B1: the binding result is given as “binds”.
